Test results reported in patent publication US20230242601A1 (published 2023).

Target: FABP3 fused with a His-tag at the N-terminus
Assay: QCM

FABP3 fused with a His-tag at the N-terminus, sequence (chain, as listed by the source): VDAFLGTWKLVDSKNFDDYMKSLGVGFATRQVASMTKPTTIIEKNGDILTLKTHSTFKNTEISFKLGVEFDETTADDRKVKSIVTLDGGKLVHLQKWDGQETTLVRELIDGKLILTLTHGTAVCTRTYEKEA

Binder	Kd
EEGWQDWEPEA [SynP130-140 Y133W/Y136W]	6.2 nM
EEGYQDWEPEA [SynP130-140 Y136W]	6.3 nM
EEGYQDFEPEA [SynP130-140 Y136F]	7.7 nM
EEGFQDWEPEA [SynP130-140 Y133F/Y136W]	6.1 nM
EEGFQDFEPEA [SynP130-140 Y133F/Y136F]	2.1 nM
EEGYQDYEPEA [SynP130-140 peptide]	6.1 nM
